B1: Lcn2 wildtype protein (other)
chain: QDSTSDLIPAPPLSKVPLQQNFQDNQFHGKWYVVGLAGNAILREDKDPQKMYATIYELKEDKSYNVTSVLFRKKKCDYWIRTFVPGSQPGEFTLGNIKSYPGLTSYLVRVVSTNYNQHAMVFFKKVSQNREYFKITLYGRTKELTSELKENFIRFSKSLGLPENHIVFPVPIDQCIDG
notes: also called recombinant Lcn2; negative control; not shown: C-terminal Strep-tag II of the phNGAL98 expression vector
B2: PIE-G3F (designed binder)
chain: QDSTSDLIPAPPLSKVPLQQNFQDNQFHGKWYVVGIAGNGQLREDKDPWKMSATIYELKEDKSYNVTSVRFRLKKCSYWIYTFVPGSQPGEFTLGGIKSNPGDTSNLVRVVSTNYNQHAMVFFKYVIQNREWFIITLYGRTKELTSELKENFIRFSKSLGLPENHIVFPVPIDQCIDGSAWSHPQFEK
notes: C-terminal Strep-tag II; also called Lcn2 mutein; not shown: C-terminal Strep-tag II
B3: PIE-G3E (designed binder)
chain: QDSTSDLIPAPPLSKVPLQQNFQDNQFHGKWYVVGSAGNHRLREDKDPRKMHATIYELKEDKSYNVTNVTFREKKCHYSIGTFVPGSQPGEFTLGKIKSNPGMTSFLVRVVSTNYNQHAMVFFKKVHQNREQFNITLYGRTKELTSELKENFIRFSKSLGLPENHIVFPVPIDQCIDGSAWSHPQFEK
notes: as for B2
B4: PIE-G3C (designed binder)
chain: QDSTSDLIPAPPLSKVPLQQNFQDNQFHGKWYVVGRAGNVALREDKDPPKMRATIYELKEDKSYNVTNVRFAMKKCMYSIGTFVPGSQPGEFTLGQIKSEPGNTSNLVRVVSTNYNQHAMVFFKEVYQNREIFFITLYGRTKELTSELKENFIRFSKSLGLPENHIVFPVPIDQCIDGSAWSHPQFEK
notes: as for B2
B5: PIE-G3H (designed binder)
chain: QDSTSDLIPAPPLSKVPLQQNFQDNQFHGKWYVVGIAGNYILREDKDPPKMRATIYELKEDKSYNVTRVFFSRKKCDYIIWTFVPGSQPGEFTLGFIKSNPGLTSLLVRVVSTNYNQHAMVFFKWVDQNREVFGITLYGRTKELTSELKENFIRFSKSLGLPENHIVFPVPIDQCIDGSAWSHPQFEK
notes: as for B2
B6: PIE-G3D (designed binder)
chain: QDSTSDLIPAPPLSKVPLQQNFQDNQFHGKWYVVGMAGNARLREDKDPVKMTATIYELKEDKSYNVTAVQFRLKKCQYGITTFVPGSQPGEFTLGDIKSIPGLTSMLVRVVSTNYNQHAMVFFKRVRQNREFFDITLYGRTKELTSELKENFIRFSKSLGLPENHIVFPVPIDQCIDGSAWSHPQFEK
notes: as for B2
B7: PIE-G3G (designed binder)
chain: QDSTSDLIPAPPLSKVPLQQNFQDNQFHGKWYVVGMAGNASLREDKDPRKMNATIYELKEDKSYNVTKVRFWHKKCYYSITTFVPGSQPGEFTLGDIKSYPGWTSYLVRVVSTNYNQHAMVFFKGVRQNREWFSITLYGRTKELTSELKENFIRFSKSLGLPENHIVFPVPIDQCIDGSAWSHPQFEK
notes: as for B2
B8: PIE-G3B (designed binder)
chain: QDSTSDLIPAPPLSKVPLQQNFQDNQFHGKWYVVGVAGNAMLREDKDPLKMRATIYELKEDKSYNVTGVSFWRKKCHYKIGTFVPGSQPGEFTLGDIKSGPGQTSNLVRVVSTNYNQHAMVFFKEVRQNREWFAITLYGRTKELTSELKENFIRFSKSLGLPENHIVFPVPIDQCIDGSAWSHPQFEK
notes: as for B2
B9: PIE-G3A (designed binder)
chain: QDSTSDLIPAPPLSKVPLQQNFQDNQFHGKWYVVGIAGNWILREDKDPPKMRATIYELKEDKSYNVTRVRFDEKKCGYGIATFVPGSQPGEFTLGVIKSRPGITSDLVRVVSTNYNQHAMVFFKFVKQNREYFGITLYGRTKELTSELKENFIRFSKSLGLPENHIVFPVPIDQCIDGSAWSHPQFEK
notes: Made in E. coli from phNGAL98 with a C-terminal Strep-tag II; also called Lcn2 mutein; not shown: C-terminal Strep-tag II

How the values were obtained:
[1] = molecular target: T1, Recombinant human Glypican-3 (human, UniProt P51654 25-559, limits assumed, randomly biotinylated via Lysine residues (EZ-Link Sulfo-NHS-LC-LC-Biotin) where captured on Neutravidin; not biotinylated where used as competitor in solution); test: direct ELISA: biotinylated human Glypican-3 captured via Neutravidin, protein titrated, RFU readout
T1 construct: Bought protein; The biotinylated and the non-biotinylated preparation are written as one molecule; also called GPC3; GPC-3
Protocol: (§1) A “direct” ELISA was performed to verify the binding affinity and specificity of the selected Lcn2 muteins. Therefore, a constant concentration of 1 μg/ml biotinylated human Glypican 3 (R&D Systems) was captured on the surface of a polystyrol plate (Greiner, GE) via BSA blocked Neutravidin (Thermo Scientific, 5 μg/ml). Two step dilution series of purified Lcn2 muteins were incubated with the captured GPC-3 for 1 h at room temperature and detected either via the Strep-tag II using a rabbit anti-strep-tag II polyconal antibody (GenScript, USA) or by using a scaffold-specific polyclonal rabbit antibody. In both cases an anti rabbit IgG-HRP conjugate (Abcam, UK) was employed as secondary detection antibody.
(§2) The absorption ΔA at […] was measured in an ELISA reader (Tecan, GE) and the data were fitted with Graphpad Prism software (Statcom, USA).

[2] = molecular target: T1, Recombinant human Glypican-3; test: direct ELISA; biotinylated human Glypican-3 (1 ug/ml) captured via Neutravidin, dilution series of purified mutein
Protocol: as §1, §2

[3] = molecular target: T1, Recombinant human Glypican-3; test: SPR (Biacore T100), Glypican-3 amine-coupled to a CM5 chip, mutein as analyte, evaluated conc 40/120 nM, 1:1 model
Protocol: (§3) Real time analysis of the binding of the Lcn2 muteins to Glypican-3 was performed on a Biacore T100 system (GE Healthcare Bio-Sciences AB, Uppsala, Sweden) using HBS-EP+ (BR-1006-69, GE Healthcare Bio-Sciences AB, Uppsala, Sweden) as running buffer. A 10 μg/mL solution of Glypican-3 in 10 mM sodium acetate pH 4.5 was immobilized onto a CM5 chip (GE Healthcare Bio-Sciences AB, Uppsala, Sweden) using standard amine coupling chemistry, resulting in a ligand density of 467 RU. The purified Lcn2 muteins were applied in concentrations of 40 nM and 120 nM at a flow rate of 30 μL/min. The dilutions were injected with association times of 120 sec and dissociation times of 420 sec to obtain ka and kd information. Regeneration of the ligand was achieved by injecting either 6 M Guanidinium-HCl (120 sec/300 sec) or 3 M MgCl2 (900 sec) with a flow rate of 10 μL/min. Injection of regeneration solutions was followed by an extra wash step with running buffer and a stabilization period of 180 sec.
(§4) The data were double-referenced by subtraction of the corresponding signals measured for the control channel, which had been activated and blocked with ethanolamine and by substraction of buffer injections from the binding responses. ka and kd for the binding reaction were determined using Biacore T100 Evaluation Software V2.0.1 for data processing and kinetic fitting. The data were globally fit with 1:1 binding model.

[4] = molecular target: T1, Recombinant human Glypican-3; test: flow cytometry on SK-HEP1 cells stably transfected with human GPC3, detection via rabbit anti-hNGAL antiserum and anti-rabbit IgG-PE
Protocol: (§5) Empty vector control cells were also obtained and analyzed in parallel. Detection of GPC3 was achieved using mouse anti-glypican 3 clone 1G12 monoclonal antibody (DCS).
(§6) In order to assess binding of muteins to the GPC3 on the cell surface, 200,000 cells in PBS/2% FCS were used in each binding reaction. Reactions were performed on ice in 30 μl for 2 h. Following two washing steps in PBS/2% FCS a secondary rabbit anti-hNGAL scaffold antiserum was employed for 30 min. followed another two wash steps. […] Measurements were performed on a FACSCalibur flow cytometer where 10,000 events were acquired for each sample. Geometric mean values were compiled in FlowJo (Treestar software) and fitted to a sigmoidal dose response model in the Prism 5 program (GraphPad) to obtain EC50 values.

mouse GPC3-SK-HEP1 = molecular target: T2, mouse GPC3-SK-HEP1 (mouse, UniProt Q8CFZ4); test: flow cytometry on SK-HEP1 cells stably transfected with mouse GPC3, detection via rabbit anti-hNGAL antiserum and anti-rabbit IgG-PE
T2 construct: cell-surface protein on transfected cells; also called mouse GPC3 transfected SK-Hep1 cells
Protocol: as §5, §6

cyno GPC3-SK-HEP1 = molecular target: T3, cyno GPC3-SK-HEP1 (Macaca fascicularis, UniProt A0A2K5VK50); test: flow cytometry on SK-HEP1 cells stably transfected with cynomolgus GPC3, detection via rabbit anti-hNGAL antiserum and anti-rabbit IgG-PE
T3 construct: cell-surface protein on transfected cells; also called cynomolgus GPC3; cyno GPC3 transfected SK-Hep1 cells
Protocol: as §5, §6

[5] = molecular target: T1, Recombinant human Glypican-3; test: competition ELISA: constant mutein pre-incubated with a dilution series of non-biotinylated human Glypican-3, free mutein detected on plate-captured biotinylated human Glypican-3
Protocol: The binding affinity of the Lcn2 muteins to non-modified Glypican-3 in solution was evaluated in a competition ELISA approach. Therefore, a constant concentration of 1 μg/ml biotinylated human Glypican-3 (R&D Systems) was captured on the surface of a polystyrol plate (Greiner, GE) via Neutravidin (Thermo Scientific, 5 μg/ml, GE). In parallel a two step dilution series of non-biotinylated human Glypican-3 starting from 1.5 μM was incubated with a constant concentration of GPC3-specific mutein for 1 h at room temperature in a non-protein binding 96 well polypropylene plate (Nunc, GE). The constant concentration of lipocalin muteins corresponds to the EC₅₀ of the respective muteins as determined in a direct ELISA as described above in this example. In the following the mixture of non-modified human GPC3 and lipocalin mutein was transferred onto the GPC3-captured Neutravidin plate. The biotinylated GPC3 was allowed to compete with the non-modified GPC3 for Anticalin binding for 1 h at room temperature. During these 1 h, free lipcocalin mutein was bound to the captured GPC3 and detected via a rabbit anti-strep-tag II polyconal antibody (GenScript, USA). A goat anti-rabbit IgG-HRP conjugate (Abcam, UK) was employed as secondary detection antibody. Parallel to the competition assay, anticalin binding was determined on the same plate in a “direct” ELISA, in order to obtain a standard curve linking the RFU values to anticalin concentration. This curve was then used to standardize competition data to the level of anticalins bounds to the plate and fitted with Graphpad software. IC₅₀ values correspond to the half-maximum amount of lipocalin mutein bound to the plate.

[6] = molecular target: T1, Recombinant human Glypican-3; test: SPR (Biacore T100), Glypican-3 amine-coupled to a CM5 chip, mutein as analyte, evaluated conc 120 nM, 1:1 model
Protocol: as §3, §4

T1 sequence (P51654 25-559 limits assumed): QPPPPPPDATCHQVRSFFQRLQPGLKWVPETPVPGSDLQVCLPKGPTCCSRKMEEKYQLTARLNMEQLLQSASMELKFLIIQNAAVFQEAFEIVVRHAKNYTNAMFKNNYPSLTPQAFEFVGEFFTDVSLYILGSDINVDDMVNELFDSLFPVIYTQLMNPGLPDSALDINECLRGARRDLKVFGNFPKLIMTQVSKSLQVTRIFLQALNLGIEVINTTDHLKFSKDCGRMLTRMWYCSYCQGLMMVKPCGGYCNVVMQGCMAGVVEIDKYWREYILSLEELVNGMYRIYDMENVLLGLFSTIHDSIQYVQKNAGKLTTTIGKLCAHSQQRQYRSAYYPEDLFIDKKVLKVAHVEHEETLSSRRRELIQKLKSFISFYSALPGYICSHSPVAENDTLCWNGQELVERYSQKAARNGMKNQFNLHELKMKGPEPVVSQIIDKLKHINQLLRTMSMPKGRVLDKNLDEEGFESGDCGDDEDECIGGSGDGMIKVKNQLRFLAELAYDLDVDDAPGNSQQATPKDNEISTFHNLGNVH
T2 sequence (Q8CFZ4 25-553 limits assumed): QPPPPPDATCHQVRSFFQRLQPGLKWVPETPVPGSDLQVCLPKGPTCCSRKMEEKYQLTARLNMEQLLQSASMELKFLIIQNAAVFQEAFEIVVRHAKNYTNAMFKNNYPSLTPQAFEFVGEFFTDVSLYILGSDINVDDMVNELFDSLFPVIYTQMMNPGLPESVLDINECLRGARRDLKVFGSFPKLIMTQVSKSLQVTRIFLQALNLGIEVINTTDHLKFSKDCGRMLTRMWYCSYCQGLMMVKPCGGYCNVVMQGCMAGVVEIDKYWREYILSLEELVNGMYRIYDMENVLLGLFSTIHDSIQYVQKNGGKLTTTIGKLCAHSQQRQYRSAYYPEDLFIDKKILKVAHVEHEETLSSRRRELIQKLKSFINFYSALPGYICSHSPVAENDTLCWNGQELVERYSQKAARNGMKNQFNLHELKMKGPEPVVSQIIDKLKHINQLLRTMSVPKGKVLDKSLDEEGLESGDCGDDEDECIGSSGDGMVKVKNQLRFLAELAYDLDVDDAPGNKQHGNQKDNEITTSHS

| Binder | binding result [1] | Kd [2] [nM] | Kd [3] [nM] | koff [3] [s⁻¹] | kon [3] [M⁻¹ s⁻¹] | EC50 [4] [nM] | EC50 (mouse GPC3-SK-HEP1) [nM] | EC50 (cyno GPC3-SK-HEP1) [nM] | IC50 [5] [nM] | Kd [6] [nM] | koff [6] [s⁻¹] | kon [6] [M⁻¹ s⁻¹] |
| --- | --- | --- | --- | --- | --- | --- | --- | --- | --- | --- | --- | --- |
| B1 | no binding | – | – | – | – | – | – | – | – | – | – | – |
| B2 | – | 0.35 | 3.13 | 0.00128 | 409000 | 4.7 | 18.7 | 3.2 | 0.07 | – | – | – |
| B3 | – | 0.2 | 0.35 | 0.00178 | 5.11e+06 | 0.4 | 2.7 | 0.12 | 0.1 | – | – | – |
| B4 | – | 0.32 | 1.21 | 0.00238 | 1.97e+06 | 0.5 | 3.5 | 0.2 | 1 | – | – | – |
| B5 | – | 0.3 | – | – | – | 49 | 580 | 98 | 0.23 | 1.07 | 0.000209 | 195000 |
| B6 | – | 0.46 | 1.4 | 0.00109 | 781000 | 1 | 10.5 | 0.7 | 0.7 | – | – | – |
| B7 | – | 0.27 | 0.51 | 0.000723 | 1.42e+06 | 0.7 | 4.3 | 0.2 | 0.1 | – | – | – |
| B8 | – | 0.27 | 0.55 | 0.000242 | 438000 | 2.5 | 2.9 | 1.1 | 0.2 | – | – | – |
| B9 | – | 7.6 | 3.78 | 0.000603 | 160000 | > 100 | – | > 100 | 0.6 | – | – | – |

From patent US20130296258A1 (Pieris, published 2013)
